Results taken from patent publication US12458681B2, “Compositions and method for treating acute radiation syndrome” (Prince Biotech, LLC, priority 2014, dated 2025).

Experiments:
[1] = target: Insulin-degrading enzyme (IDE) (Homo sapiens, UniProt P14735); assay: Differential Shift Assay of PIF mutants; type: binding
Text: Thus 2 putative mutants were conceived, mutant-1: P6→E6, and mutant-3:[…]; c. Table represent the mutants that were considered, of them 2 were synthesized based on their putative availability as options for ligand-receptor disruptors.

NOD mice = settings: adoptive transfer and spontaneous disease, long term; cited from earlier work

Sequence	binding to IDE [1]	diabetes development (NOD mice)
MVRGKPGSANKPSDD [mut3]	bind	–
GRVDPSNKSMPKDIA [PTFscr]	–	no effect
MVRIKEGSANKPSDD [mut1]	bind	–
